According to US20260207704A1, “STAPLED PEPTIDES AND METHODS THEREOF” (priority 2022, published 2026):
Like-named read-outs stand apart in the source and are kept apart here. *1 amine or outer side, *2 acyl side, *3 side chain or, on linkers, in order; H or OH if unused. Bridges are numbered along the chain shown (N, C = ends). Primed or numbered codes have the meaning given here. [ ]: non-standard residue; d: D form. B5(4) = 2-amino-2-(pent-4-en-1-yl)hept-6-enoic acid, stapled through each of its two olefin groups with other olefin-containing amino acid residues, O=C(C(CCCC=[*:3])(CCCC=[*:4])N[*:1])[*:2]; PyrS2″ = (S)-3-amino-1-((pent-4-en-1-yloxy)carbonyl)pyrrolidine-3-carboxylic acid (olefin stapling residue), C=CCCCOC(=O)N1CC[C@@](N[*:1])(C(=O)[*:2])C1; PyrS2(3) = (S)-3-amino-1-((pent-4-en-1-yloxy)carbonyl)pyrrolidine-3-carboxylic acid, olefin residue, C=CCCCOC(=O)N1CC[C@@](N[*:1])(C(=O)[*:2])C1; PyrS2(5) = (S)-3-amino-1-((pent-4-en-1-yloxy)carbonyl)pyrrolidine-3-carboxylic acid, C=CCCCOC(=O)N1CC[C@@](N[*:1])(C(=O)[*:2])C1; B5″ = 2-amino-2-(pent-4-en-1-yl)hept-6-enoic acid (bis-olefin stapling residue), C=CCCCC(CCCC=C)(N[*:1])C(=O)[*:2]; B5(3) = 2-amino-2-(pent-4-en-1-yl)hept-6-enoic acid, two olefin arms, C=CCCCC(CCCC=C)(N[*:1])C(=O)[*:2]; 2F3MeF(3) = aromatic amino acid residue, Cc1cccc(C[C@H](N[*:1])C(=O)[*:2])c1F; Phe(3-COOH) = N[C@@H](Cc1cccc(C(=O)O)c1)C(=O)O; 2F3MeF = Cc1cccc(C[C@H](N[*:1])C(=O)[*:2])c1F; Bta = N[C@@H](Cc1csc2ccccc12)C(=O)O; αAllylPro = C=CC[C@@]1(C(=O)O)CCCN1; BztA = aromatic amino acid residue; tBuAla = CC(C)(C)C[C@H](N)C(=O)O; 3Thi = N[C@@H](Cc1ccsc1)C(=O)O; Cha = N[C@@H](CC1CCCCC1)C(=O)O; PyrS2(4) = not defined here; TfeGA = not defined here; GlnR = not defined here; PL3 = not defined here; B5 = not defined here; Aib = CC(C)(N)C(=O)O

What was measured:
DLD1 reporter = assay: reporter assay (DLD1 reporter assay); assay type: cell-based; settings: read-out: DLD1 4% Abs IC50
Excerpt: Various technologies can be utilized for characterizing and/or assessing provided technologies (e.g., agents (e.g., various peptides), compositions, methods, etc.) in accordance with the present disclosure. As described herein, in some embodiments, a useful technology is or comprises fluorescence polarization. In some embodiments, a useful technology assesses LogP or LogD. In some embodiments, a useful technology is or comprises a CHI LogD assay. In some embodiments, a useful technology assesses solubility. In some embodiments, a useful technology is or comprises NanoBRET. In some embodiments, a useful technology is or comprises a reporter assay (e.g., DLD1 reporter assay). In some embodiments, a useful technology is or comprises alphascreen. Certain useful protocols are described in the Examples. Those skilled in the art appreciate that suitable adjustments may be made to such protocols, e.g., according to specific conditions, agents, purposes, etc.
Various technologies can be utilized to assess technologies of the present disclosure. For example, in some embodiments, solubility, LogD, interactions with targets, etc. of various agents such as stapled peptides were assessed using technologies described in WO 2022/261257 (e.g., those in its Examples). In some embodiments, solubility, shake flask LogD, and binding to beta-catenin were assessed. In some embodiments, an assay for assessing interactions, e.g., with beta-catenin, was fluorescence polarization as described in WO 2022/261257. In some embodiments, an assay was Nano-BRET target engagement assay that assessed beta-catenin/TCF4 engagement as described in WO 2022/261257. In some embodiments, an assay was a reporter assay as reported in Example 4 of WO 2022/261257. In some embodiments, an assay was a COLO320DM proliferation assay as reported in Example 4 of WO 2022/261257.

beta-catenin (human) [1] = assay: cell-based or functional assay
beta-catenin (human), sequence (B6V8E6 146-665 limits assumed): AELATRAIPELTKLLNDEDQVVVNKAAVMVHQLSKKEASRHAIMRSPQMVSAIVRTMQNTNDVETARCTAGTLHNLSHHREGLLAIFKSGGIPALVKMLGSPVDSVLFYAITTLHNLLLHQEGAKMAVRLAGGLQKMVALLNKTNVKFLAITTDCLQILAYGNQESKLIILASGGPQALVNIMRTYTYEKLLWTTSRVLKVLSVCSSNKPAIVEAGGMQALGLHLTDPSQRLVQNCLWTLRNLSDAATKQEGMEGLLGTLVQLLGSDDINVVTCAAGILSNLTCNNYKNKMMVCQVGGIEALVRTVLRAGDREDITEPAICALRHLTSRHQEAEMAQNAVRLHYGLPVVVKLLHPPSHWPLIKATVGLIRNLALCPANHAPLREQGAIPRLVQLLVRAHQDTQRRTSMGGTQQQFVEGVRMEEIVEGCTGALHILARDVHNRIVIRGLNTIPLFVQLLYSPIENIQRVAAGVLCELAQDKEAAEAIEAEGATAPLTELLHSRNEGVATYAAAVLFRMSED

beta-catenin (human) [2] = assay: fluorescence polarization

| Molecule | NanoBRET Abs IC50 (bin >1.5 uM) (beta-catenin (human) [1]) [nM] | IC50 (beta-catenin (human) [2]) [nM] | also measured |
| --- | --- | --- | --- |
| CC(=O)N1CCC[C@]12CC=CCCCC1(CCCC=CCCCOC(=O)N3CC[C@@]4(C3)NC(=O)[C@H](CCCCNC(=O)CC[C@@H](C(=O)NC(C)(C)C(N)=O)NC(=O)[C@H](Cc3csc5ccccc35)NC(=O)[C@H](Cc3ccccc3C(F)(F)F)NC4=O)NC(=O)[C@H](Cc3ccccc3)NC(=O)[C@H](C)NC(=O)[C@H](C)NC(=O)[C@H](CN(CC(=O)O)CC(F)(F)F)NC(=O)[C@H](CC(=O)O)NC1=O)NC(=O)[C@H](CC(C)(C)C)NC(=O)[C@H](CC(=O)O)NC2=O (single isomer, unassigned) [I-127, Ac-PL3-Asp-Npg-B5-Asp-TfeGA-Ala-Ala-Phe-Lys*3-PyrS2-2F3MeF-BztA-GlnR*3-Aib-NH2] |  |  | IC50 (DLD1 reporter; DLD1 4%): 1000 to 5000 nM |
| CC(=O)N1CCC[C@]12CC=CCCCC1(CCCC=CCCCOC(=O)N3CC[C@@]4(C3)NC(=O)[C@H](CCCCNC(=O)CC[C@@H](C(=O)N[C@@H](C)C(N)=O)NC(=O)[C@H](Cc3csc5ccccc35)NC(=O)[C@H](Cc3ccccc3C(F)(F)F)NC4=O)NC(=O)[C@H](Cc3ccccc3)NC(=O)[C@H](C)NC(=O)[C@H](CC(C)(C)C)NC(=O)[C@H](Cc3cccc(C(=O)O)c3)NC(=O)[C@H](CC(=O)O)NC1=O)NC(=O)[C@H](CC(C)(C)C)NC(=O)[C@H](CC(=O)O)NC2=O (single isomer, unassigned) [I-99, Ac-PL3-Asp-Npg-B5-Asp-3COOHF-Npg-Ala-Phe-Lys*3-PyrS2-2F3MeF-BztA-GlnR*3-Ala-NH2] |  |  | IC50 (DLD1 reporter; DLD1 4%): ≤ 1000 nM |
| CC(=O)N1CCC[C@]12CC=CCCCC1(CCCC=CCCCOC(=O)N3CC[C@@]4(C3)NC(=O)[C@H](CCCCNC(=O)CC[C@@H](C(=O)N[C@@H](CC(C)C)C(=O)N[C@@H](CO)C(N)=O)NC(=O)[C@H](Cc3csc5ccccc35)NC(=O)[C@H](Cc3ccccc3C(F)(F)F)NC4=O)NC(=O)[C@H](Cc3ccccc3)NC(=O)[C@H](C)NC(=O)C(C)(C)NC(=O)[C@H](Cc3cccc(C(=O)O)c3)NC(=O)[C@H](CC(=O)O)NC1=O)NC(=O)[C@H](CC(C)(C)C)NC(=O)[C@H](CC(N)=O)NC2=O (relative stereo) [I-144, Ac-PL3-Asn-Npg-B5-Asp-3COOHF-Aib-Ala-Phe-Lys*3-PyrS2-2F3MeF-BztA-GlnR*3-Leu-Ser-NH2] |  |  | IC50 (DLD1 reporter; DLD1 4%): 1000 to 5000 nM |
| CC(=O)N1CCC[C@]12CC=CCCCC1(CCCC=CCCCOC(=O)N3CC[C@@]4(C3)NC(=O)[C@H](Cc3cn(nn3)CCCC[C@@H](C(=O)N[C@@H](C)C(N)=O)NC(=O)[C@H](Cc3csc5ccccc35)NC(=O)[C@H](Cc3ccsc3)NC4=O)NC(=O)[C@H](Cc3ccccc3)NC(=O)[C@H](C)NC(=O)C(C)(C)NC(=O)[C@H](Cc3cccc(C(=O)O)c3)NC(=O)[C@H](CC(=O)O)NC1=O)NC(=O)[C@H](CC(C)(C)C)NC(=O)[C@H](CC(=O)O)NC2=O (stereo partly drawn) [I-336, Ac-PL3-Asp-Npg-B5-Asp-3COOHF-Aib-Ala-Phe-sAla*3-PyrS2-3Thi-BztA-TriAzLys*3-Ala-NH2] |  |  | IC50 (DLD1 reporter; DLD1 reporter, 4%): 1000 to 5000 nM |
| CC(=O)N1CCC[C@]12CC=CCCCC1(CCCC=CCCCOC(=O)N3CC[C@@]4(C3)NC(=O)[C@H](CCCCn3cc(nn3)C[C@@H](C(=O)N[C@@H](C)C(N)=O)NC(=O)[C@H](Cc3csc5ccccc35)NC(=O)[C@H](Cc3ccsc3)NC4=O)NC(=O)[C@H](Cc3ccccc3)NC(=O)[C@H](C)NC(=O)[C@H](C)NC(=O)[C@H](Cc3cccc(C(=O)O)c3)NC(=O)[C@H](CC(=O)O)NC1=O)NC(=O)[C@H](CC(C)(C)C)NC(=O)[C@H](CC(=O)O)NC2=O (stereo partly drawn) [I-337, Ac-PL3-Asp-Npg-B5-Asp-3COOHF-Ala-Ala-Phe-TriAzLys*3-PyrS2-3Thi-BztA-sAla*3-Ala-NH2] |  |  | IC50 (DLD1 reporter; DLD1 reporter, 4%): ≤ 1000 nM |
| CC(=O)N1CCC[C@]12CC=CCCCC1(CCCC=CCCCOC(=O)N3CC[C@@]4(C3)NC(=O)[C@H](CCCCNC(=O)CC[C@@H](C(=O)N[C@@H](CC(C)C)C(N)=O)NC(=O)[C@H](Cc3csc5ccccc35)NC(=O)[C@H](Cc3ccccc3C(F)(F)F)NC4=O)NC(=O)[C@H](Cc3ccccc3)NC(=O)[C@H](C)NC(=O)[C@H](C)NC(=O)[C@H](CN(CC(=O)O)CC(F)(F)F)NC(=O)[C@H](CC(=O)O)NC1=O)NC(=O)[C@H](CC(C)(C)C)NC(=O)[C@H](CC(=O)O)NC2=O (relative stereo) [I-128, Ac-PL3-Asp-Npg-B5-Asp-TfeGA-Ala-Ala-Phe-Lys*3-PyrS2-2F3MeF-BztA-GlnR*3-Leu-NH2] |  |  | IC50 (DLD1 reporter; DLD1 4%): 1000 to 5000 nM |
| Ac-[αAllylPro]D[tBuAla][B5(3)]D[Phe(3-COOH)]TAFK[PyrS2(3)][3Thi][Bta][GlnR]A-NH2 (bridge 10-14; not fully specified (bridges); printed as Ac-PL3-Asp-Npg-B5-Asp-3COOHF-Thr-Ala-Phe-Lys*3-PyrS2-3Thi-BztA-GlnR*3-Ala-NH2; reading uncertain) [I-72] | < 3000 | < 50 |  |
| Ac-[PL3]D[Cha][B5]D[Phe(3-COOH)]AAFK[PyrS2(4)][2F3MeF][Bta][GlnR]L-NH2 (staple 1-4; bridge 10-14; not fully specified (residue 10); printed as Ac-PL3-Asp-Cha-B5-Asp-3COOHF-Ala-Ala-Phe-Lys*3-PyrS2-2F3MeF-BztA-GlnR*3-Leu-NH2; reading uncertain; also: PyrS2 tied into a staple, partner not placed) [I-106] | < 3000 | < 50 |  |
| Ac-[PL3]D[tBuAla][B5]D[Phe(3-COOH)][Cha]AFK[PyrS2(4)][2F3MeF][Bta][GlnR]A-NH2 (staple 1-4; bridge 10-14; not fully specified (residue 10); printed as Ac-PL3-Asp-Npg-B5-Asp-3COOHF-Cha-Ala-Phe-Lys*3-PyrS2-2F3MeF-BztA-GlnR*3-Ala-NH2; reading uncertain; also: PyrS2 tied into a staple, partner not placed) [I-101] | < 3000 | < 50 |  |
| Ac-[PL3]DL[B5]DDAAFK[PyrS2(4)][3Thi][Bta][GlnR]-NH2 (staple 1-4; bridge 10-14; not fully specified (residue 10); printed as Ac-PL3-Asp-Leu-B5-Asp-Asp-Ala-Ala-Phe-dLys*3-PyrS2-3Thi-BztA-GlnR*3-NH2; reading uncertain; also: PyrS2 tied into a staple, partner not placed) [I-1] |  | < 50 | NanoBRET Abs IC50 (beta-catenin (human) [1]): > 10000 nM |
| Ac-[PL3]D[tBuAla][B5]D[Phe(3-COOH)]AAFK[PyrS2(4)][2F3MeF][Bta][GlnR]L-NH2 (staple 1-4; bridge 10-14; not fully specified (residue 10); printed as Ac-PL3-Asp-Npg-B5-Asp-3COOHF-Ala-Ala-Phe-Lys*3-PyrS2-2F3MeF-BztA-GlnR*3-Leu-NH2; reading uncertain; also: PyrS2 tied into a staple, partner not placed) [I-104] | < 3000 | < 50 |  |
| Ac-[αAllylPro]D[tBuAla][B5″]D[TfeGA][Aib]AFK[PyrS2″][2F3MeF][Bta][GlnR]A-NH2 (bridge 10-14; not fully specified (bridges); reading uncertain; also: Lys*3 and GlnR*3 marked *3) [I-120] | < 3000 | < 50 |  |
| Ac-[PL3]D[Cha][B5]D[Phe(3-COOH)]AAFK[PyrS2″][2F3MeF(3)][BztA][GlnR]A-NH2 (staple 1-4 (inferred); bridge 10-14; not fully specified (residue 10, bridges); printed as Ac-PL3-Asp-Cha-B5-Asp-3COOHF-Ala-Ala-Phe-Lys*3-PyrS2-2F3MeF-BztA-GlnR*3-Ala-NH2; reading uncertain; also: Lys10 and GlnR14 marked *3) [I-97] | < 3000 | < 50 |  |
| Ac-[αAllylPro]D[tBuAla][B5(4)]D[TfeGA][Aib]AFK[PyrS2(5)][2F3MeF][Bta][GlnR]A-NH2 (bridge 10-14; not fully specified (bridges); reading uncertain; also: Lys*3 and GlnR*3 marked *3) [I-121] | < 3000 | < 50 |  |
| XDXXDXTAFKXXXQA (not fully specified; Ac-PL3-Asp-Npg-B5-Asp-3COOHF-Thr-Ala-Phe-Lys*3-PyrS2-2F3MeF-BztA-GlnR*3-Ala-NH2) [I-73] | < 3000 | < 50 |  |
